# Reference: the supplement of paper PMC10567573
# B1: FAM107A (parent)
# chain: LQRVLEHRRRNQLIKKKKEELEAK
# Variants of: B1
# Test: protein stability index of a GFP-peptide fusion (GPS, HEK-293T) (PSI 1-6); higher = more stable
# Conditions: c terminus: a fixed tail appended
# 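Further: lentivirally expressed fusions sorted by FACS into six bins by GFP to DsRed ratio, PSI derived from sequencing read proportions per bin multiplied by bin number.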
row,Variant,protein stability index
1,LQKVLEHRRRNQLIKKKKEELEAK [R3K],3.69
2,LQLVLEHRRRNQLIKKKKEELEAK [R3L],2.39
3,LQNVLEHRRRNQLIKKKKEELEAK [R3N],3.79
4,LQQVLEHRRRNQLIKKKKEELEAK [R3Q],3.92
5,LQSVLEHRRRNQLIKKKKEELEAK [R3S],4.04
6,LQTVLEHRRRNQLIKKKKEELEAK [R3T],3.8
7,LQVVLEHRRRNQLIKKKKEELEAK [R3V],3.6
8,LQWVLEHRRRNQLIKKKKEELEAK [R3W],2.27
9,LQYVLEHRRRNQLIKKKKEELEAK [R3Y],3.39
10,LQRALEHRRRNQLIKKKKEELEAK [V4A],4.09
11,LQRELEHRRRNQLIKKKKEELEAK [V4E],4.49
12,LQRFLEHRRRNQLIKKKKEELEAK [V4F],2.05
13,LQRGLEHRRRNQLIKKKKEELEAK [V4G],3.52
14,LQRHLEHRRRNQLIKKKKEELEAK [V4H],3.68
15,LQRKLEHRRRNQLIKKKKEELEAK [V4K],4.39
16,LQRLLEHRRRNQLIKKKKEELEAK [V4L],2.87
17,LQRMLEHRRRNQLIKKKKEELEAK [V4M],3.1
18,LQRNLEHRRRNQLIKKKKEELEAK [V4N],4.87
19,LQRPLEHRRRNQLIKKKKEELEAK [V4P],4.66
20,LQRQLEHRRRNQLIKKKKEELEAK [V4Q],4.61
21,LQRRLEHRRRNQLIKKKKEELEAK [V4R],4.14
22,LQRSLEHRRRNQLIKKKKEELEAK [V4S],3.69
23,LQRTLEHRRRNQLIKKKKEELEAK [V4T],3.92
24,LQRWLEHRRRNQLIKKKKEELEAK [V4W],2.09

row,Variant,protein stability index
1,LQRVAEHRRRNQLIKKKKEELEAK [L5A],4.08
2,LQRVCEHRRRNQLIKKKKEELEAK [L5C],3.69
3,LQRVEEHRRRNQLIKKKKEELEAK [L5E],4.38
4,LQRVFEHRRRNQLIKKKKEELEAK [L5F],3.77
5,LQRVGEHRRRNQLIKKKKEELEAK [L5G],4.73
6,LQRVHEHRRRNQLIKKKKEELEAK [L5H],5.17
7,LQRVIEHRRRNQLIKKKKEELEAK [L5I],3.2
8,LQRVMEHRRRNQLIKKKKEELEAK [L5M],4.19
9,LQRVNEHRRRNQLIKKKKEELEAK [L5N],4.27
10,LQRVPEHRRRNQLIKKKKEELEAK [L5P],4.69
11,LQRVQEHRRRNQLIKKKKEELEAK [L5Q],3.94
12,LQRVREHRRRNQLIKKKKEELEAK [L5R],4.04
13,LQRVSEHRRRNQLIKKKKEELEAK [L5S],4.46
14,LQRVTEHRRRNQLIKKKKEELEAK [L5T],4.38
15,LQRVWEHRRRNQLIKKKKEELEAK [L5W],3.71
16,LQRVYEHRRRNQLIKKKKEELEAK [L5Y],2.98
17,LQRVLAHRRRNQLIKKKKEELEAK [E6A],3.07
18,LQRVLCHRRRNQLIKKKKEELEAK [E6C],3.12
19,LQRVLDHRRRNQLIKKKKEELEAK [E6D],3.61
20,LQRVLFHRRRNQLIKKKKEELEAK [E6F],3.63
21,LQRVLGHRRRNQLIKKKKEELEAK [E6G],3.98
22,LQRVLHHRRRNQLIKKKKEELEAK [E6H],3.81
23,LQRVLIHRRRNQLIKKKKEELEAK [E6I],2.73
24,LQRVLKHRRRNQLIKKKKEELEAK [E6K],4.04

row,Variant,protein stability index
1,LQRVLLHRRRNQLIKKKKEELEAK [E6L],2.79
2,LQRVLMHRRRNQLIKKKKEELEAK [E6M],3.32
3,LQRVLPHRRRNQLIKKKKEELEAK [E6P],3.96
4,LQRVLRHRRRNQLIKKKKEELEAK [E6R],3.81
5,LQRVLSHRRRNQLIKKKKEELEAK [E6S],4.13
6,LQRVLTHRRRNQLIKKKKEELEAK [E6T],3.02
7,LQRVLVHRRRNQLIKKKKEELEAK [E6V],3.68
8,LQRVLWHRRRNQLIKKKKEELEAK [E6W],3.02
9,LQRVLYHRRRNQLIKKKKEELEAK [E6Y],3
10,LQRVLEARRRNQLIKKKKEELEAK [H7A],3.67
11,LQRVLECRRRNQLIKKKKEELEAK [H7C],3.37
12,LQRVLEDRRRNQLIKKKKEELEAK [H7D],4.04
13,LQRVLEERRRNQLIKKKKEELEAK [H7E],3.9
14,LQRVLEFRRRNQLIKKKKEELEAK [H7F],3.1
15,LQRVLEGRRRNQLIKKKKEELEAK [H7G],4.29
16,LQRVLEIRRRNQLIKKKKEELEAK [H7I],3.06
17,LQRVLEKRRRNQLIKKKKEELEAK [H7K],1.82
18,LQRVLELRRRNQLIKKKKEELEAK [H7L],3.34
19,LQRVLEMRRRNQLIKKKKEELEAK [H7M],3.15
20,LQRVLENRRRNQLIKKKKEELEAK [H7N],3.67
21,LQRVLEPRRRNQLIKKKKEELEAK [H7P],3.4
22,LQRVLEQRRRNQLIKKKKEELEAK [H7Q],3.75
23,LQRVLERRRRNQLIKKKKEELEAK [H7R],3.19
24,LQRVLEYRRRNQLIKKKKEELEAK [H7Y],1.69

row,Variant,protein stability index
1,LQRVLEHARRNQLIKKKKEELEAK [R8A],3.43
2,LQRVLEHDRRNQLIKKKKEELEAK [R8D],4.61
3,LQRVLEHERRNQLIKKKKEELEAK [R8E],4.32
4,LQRVLEHFRRNQLIKKKKEELEAK [R8F],2.1
5,LQRVLEHGRRNQLIKKKKEELEAK [R8G],3.39
6,LQRVLEHHRRNQLIKKKKEELEAK [R8H],2.89
7,LQRVLEHIRRNQLIKKKKEELEAK [R8I],2.42
8,LQRVLEHKRRNQLIKKKKEELEAK [R8K],3.82
9,LQRVLEHLRRNQLIKKKKEELEAK [R8L],2.15
10,LQRVLEHMRRNQLIKKKKEELEAK [R8M],3.38
11,LQRVLEHNRRNQLIKKKKEELEAK [R8N],3.53
12,LQRVLEHPRRNQLIKKKKEELEAK [R8P],3.45
13,LQRVLEHQRRNQLIKKKKEELEAK [R8Q],3.38
14,LQRVLEHTRRNQLIKKKKEELEAK [R8T],3.87
15,LQRVLEHVRRNQLIKKKKEELEAK [R8V],3.05
16,LQRVLEHWRRNQLIKKKKEELEAK [R8W],1.68
17,LQRVLEHRARNQLIKKKKEELEAK [R9A],4.4
18,LQRVLEHRCRNQLIKKKKEELEAK [R9C],3.23
19,LQRVLEHRDRNQLIKKKKEELEAK [R9D],3.96
20,LQRVLEHRERNQLIKKKKEELEAK [R9E],3.97
21,LQRVLEHRFRNQLIKKKKEELEAK [R9F],2.49
22,LQRVLEHRGRNQLIKKKKEELEAK [R9G],4.14
23,LQRVLEHRHRNQLIKKKKEELEAK [R9H],3.65
